This note sets out measurements from publication doi:10.1101/2021.02.09.429966 (bioRxiv, 2021).

This assay deals with Clumping factor A (ClfA) on S. aureus LACΔspaΔsbi (Staphylococcus aureus USA300 LAC Δspa, …, UniProt A0A0H2XG16). Nature of the assay: flow cytometry on cells.

B1: T1-2-IgG1 (antibody, V domains shown)
VH: QVQLKESGPGLVAPSQSLSITCAISGFSLSRYSVHWVRQPPGKGLEWLGMIWGGGNTDYNSALKSRLSISKDNSKSQVFLKMNSLQTDDTAMYYCARKGEFYYGYDGFVYWGQGTLVTVSA
VL: NIMMTQSPSSLAVSAGEKVTMSCKSSQSVLYSSNQKNYLAWYQQKPGQSPKLLIYWASTRESGVPDRFTGSGSGTDFTLTISSVQAEDLAVYYCHQYLSSYTFGGGTKLEIK
As for B1, the binding result is reported as “binds”.
